Reference: patent publication US7163686

What was measured:
[1] = biological target: biotinylated-purified IgG Fc fragments (Jackson Labs); assay: inhibition ELISA: protein in solution incubated with biotinylated IgG Fc fragments, wells coated with SpA, streptavidin-AP
[2] = biological target: representative VHIII-encoded IgG2a Moab (moderate affinity clan VHIII, murine 7183-encoded antibody); assay: inhibition ELISA: SpA form in solution preincubated with the murine 7183-encoded IgG2a, then wells coated with tetmDomD′; human Fc fragments added

## SpA domain D (wildtype), monomer (from UniProt P38507 93-153)
[1]
  IC50: 200 µM
[2]
  IC50: 10000 µM

## Staphylococcal protein A (SpA), native, recombinant rSpA (Repligen) (from UniProt P38507 37-437)
[1]
  IC50: 0.4 µM
[2]
  IC50: 2 µM

## TetmDomD′ (four-domain concatamer of mutant SpA domain D′, L17D/I31A) (from UniProt P38507 93-153; P38507 93-153; P38507 93-153; P38507 93-153)
[2]
  IC50: 5000 µM
